Reference: the supplement of paper PMC9170038

Tested on: MS2 coat protein
Test: apparent KD of MS2 coat protein; designed switch direction (-1 OFF switch, 1 ON switch): -1; higher = weaker reporter binding
Method in brief: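 The reported apparent KD is a per-design median over clusters, from curve fits of normalised cluster fluorescence. Protein titrations used SNAP-549-labelled MS2 coat protein, doubled from 0.7 or 1.5 nM to 3 µM, in Tris-HCl pH 7.5 buffer with KCl, MgCl2, BSA, DTT, tRNA and Tween-20, with no input, 200 uM small-molecule ligand, or an oligonucleotide input. The RNA switches were transcribed on Illumina chips by stalled E. coli RNA polymerase.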

[1] = Eterna round: R95, input ligand: FMN 200 uM
[2] = Eterna round: R95, input ligand: microRNA oligo, concentration not stated
[3] = Eterna round: R95, input ligand: none
[4] = input ligand: microRNA oligo, concentration not stated

Sequence	apparent KD of MS2 coat protein (input ligand: FMN 200 uM)	apparent KD of MS2 coat protein (input ligand: none)	apparent KD of MS2 coat protein [1]	apparent KD of MS2 coat protein [2]	apparent KD of MS2 coat protein [3]	apparent KD of MS2 coat protein [4]
CUCAUGUAAGGAUAUUGGCACAUGGAACCUGCUGGUUCUGAUAAGAAGGUACAUGAGGAUCACCCAUGUCCUCG [Eternabot (L2) Solution 89] (Eterna round: R97, puzzle: Exclusion 4)	0.0487 µM	0.0475 µM	–	–	–	–
CCGCUACAUGAGGAUCACCCAUGUCAGGAUAUCGUACGUUCGUCGAAAGACGAUCGUACGAGAAGGGUGAGCGG [Eli x1 4.38] (Eterna round: R97, puzzle: Exclusion 1)	0.138 µM	0.187 µM	–	–	–	–
GGUGAGAGCAAGGAUAUGCAGAAGAGAGAAAGAGCAGAAGGUGCUACAUGAGGAUCACCCAUGUAGGAUGUGUU [JR_E6_Sub013] (puzzle: Exclusion 6)	–	–	0.0152 µM	0.0134 µM	0.0134 µM	–
UUCGUGCAGCUUUGCUGUACGCGUACAUGAGGAUCACCCAUGUAGGAUAUGGUAGGCAAAGCUUACUAGAAGGAUAUAGUGAUC [Mat - Exclusion NG 3 - Mod of JL - D78] (Eterna round: R96, puzzle: Exclusion NG 3)	0.0667 µM	0.0645 µM	–	–	–	0.0417 µM
GGGCUCGGUGUGAGGAUAUCGGGCCCGAAAGGGCCCGAGAAGGCACAUGAGGAUCACCCAUGUAAGUCGGGCUC [-38.1, -37 kcal, A 23%, 0-4] (Eterna round: R97, puzzle: Brourd's mod of Exclusion 4)	0.0136 µM	0.0141 µM	–	–	–	–
CCAAGCUAUUUCAUAACAAACAUGAGGAUCACCCAUGUGUAAGCAAUUAUGUUUGGGCUCUUUAGUGCUCGUCUUAU [JR_STOV1_Sub046] (Eterna round: R97, puzzle: Sensor, turn-off variant 1)	0.0192 µM	0.0192 µM	–	–	–	–
AACCUGAGGCUUUGCUUUAGGUUUACAUGAGGAUCACCCAUGUAGGAUAUGGUAGGCUUUGCUUACCAGAAGGACAUGUUAAUU [Mat - Exclusion NG 3 - Mod of JL - D26] (Eterna round: R96, puzzle: Exclusion NG 3)	0.241 µM	0.0442 µM	–	–	–	0.025 µM
UACACUGCAUGAGGAUCAAACAUGAGGAUCACCCAUGUAUAGCAGGCUUUUUGCACGUCUUAUAAUUAUGUAGUGUA [Electric Eye 15 - Jieux - Sensor, turn-off variant 1] (Eterna round: R97, puzzle: Sensor, turn-off variant 1)	0.0142 µM	0.0144 µM	–	–	–	–
AUUGUUUAUGUAGGAUAUGCCUGGCGUGCCUUUGCAGAAGGACAUGAGGAUCACCCAUGUAACAUGAGGCUCACCCUUGUCGCA [salish99_ExNG1_r04_114] (Eterna round: R96, puzzle: Exclusion NG 1)	0.147 µM	0.0955 µM	–	–	–	0.0814 µM
CCCAUAUUGGAAGGAUAUUACCACAUGAGGAUCACCCAUGUGGUUUAAGGCUUACAACGACGUGGUAAGAAGGUCCAUUAUAUG [Eternabot solution 45] (Eterna round: R96, puzzle: Exclusion NG 2)	0.0281 µM	0.0154 µM	–	–	–	0.0137 µM
AGCCACAGAGGAUAUACAUACAUCCAGUAGUUAAGAAAACUACAUGAGGAUCACCCAUGUAGAAGGCUGUGGCA [Omei Ex2 BD B5] (Eterna round: R97, puzzle: Exclusion 2)	0.507 µM	0.101 µM	–	–	–	–
GCCCGUGGGCAAGGAUAUCCUACGCUGUUCUGGUUCGUGUCUGUCACAUGAGGAUCACCCAUGUGGGAGAAGGUGCAUUUGGGU [Design 55] (Eterna round: R96, puzzle: Exclusion NG 2)	0.0141 µM	0.0173 µM	–	–	–	0.0111 µM
CAUUCAGAUGUCAGGAUAUCUGCGGGUAGGGCCGAAGAGAAGGGACAUGAGGAUCACCCAUGUACACUGCUAGA [BmEX4 B.28] (Eterna round: R97, puzzle: Brourd's mod of Exclusion 4)	0.0229 µM	0.016 µM	–	–	–	–
AAAUAUCAUGUAGGAUAUGGAAGGCGAACCUAUCCAGAAGGACAUGAGGAUCACCCAUGUGCUGAGUUGUCCGUAGACAGCUCU [Ex NG1 #3] (Eterna round: R96, puzzle: Exclusion NG 1)	0.168 µM	0.031 µM	–	–	–	0.0271 µM
CUGGUCCGAGGAUAUAUUAUGUGAAACAUGAGGAUCACCCAUGUAAUAUGAUGGAUAUAAAUAGAAGGCGGACUAG [Mat - Exclusion 5 - JL mod - D31] (puzzle: Exclusion 5)	–	–	0.0224 µM	0.0199 µM	0.0311 µM	–
